Residue numbers refer to the chain shown, from its start.
Legend:
[1] = target: T1, biotinylated human H202D GDF-15 variant (human, UniProt Q99988 197-308, biotinylated, sites not stated); assay: HTRF binding assay, biotinylated antigen, titration of antibody
T1 construct: also called Human GDF-15 H202D
T1 chain: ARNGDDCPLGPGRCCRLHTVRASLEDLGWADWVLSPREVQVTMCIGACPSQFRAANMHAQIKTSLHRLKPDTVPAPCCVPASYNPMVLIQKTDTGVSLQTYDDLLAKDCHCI
Description: (§1) Supernatants generated from the immunizations with human GDF-15 and purified IgGs were screened to identify IgGs with specific binding to human, cynomolgus, or mouse GDF-15. The HTRF (Homogeneous Time Resolved Fluorescence) assay is based on detection of a measurable FRET signal upon binding of a titration of test antibody to biotinylated human H202D GDF-15 variant, cynomolgus GDF-15 and mouse GDF-15. Europium cryptate (EuK) labelled Streptavidin and anti-human IgG XL665 (Cis Bio) were used as secondary detection reagents serving as energy donor and acceptor respectively. In the absence of test antibody binding, there is no detectable FRET fluorescence. When test antibody binds to GDF-15, the resulting physical proximity between the secondary reagent donor/acceptor pair results in FRET. FRET was measured ratiometrically [665 nm (acceptor)/620 nm (donor)] on an Envision plate reader, and data plotted using PRISM 6® software (Graphpad).

[2] = target: T2, mouse GDF-15 (mouse, UniProt Q9Z0J7 189-303); assay: as above
T2 construct: also called mGDF-15
T2 sequence: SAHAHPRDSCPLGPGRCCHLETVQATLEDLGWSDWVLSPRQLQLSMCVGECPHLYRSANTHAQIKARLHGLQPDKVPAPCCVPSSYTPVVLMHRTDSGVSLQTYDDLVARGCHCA
Description: as §1

[3] = target: T3, biotinylated cynomolgus GDF-15 (cynomolgus, UniProt G7PWZ3 197-308, biotinylated, sites not stated); assay: as above
T3 construct: also called Cyno GDF-15
T3 sequence: T1 chain with D6R, R21H, A54E, T63M, S64N, I112V
Description: as §1

[4] = target: T4, mature human GDF-15 (human, UniProt Q99988 197-308); assay: HTRF epitope competition; competitor DyLight 650 labelled Antibody A; Europium labelled human GDF-15
T4 construct: Homodimer; also called hGDF-15; recombinant hu-GDF15
T4 sequence: T1 chain with D6H
Description: Antibodies from the immunizations with human GDF-15, in the form of crude supernatants from the immunization or in the form of purified IgGs, were chosen on the basis that they bind and compete with an epitope recognized by a control anti-GDF-15 antibody “Antibody A”. A biochemical epitope competition format was applied using an HTRF epitope competition assay that measured the binding of DyLight 650 labelled Antibody A to Europium labelled human GDF-15 (Prospec). In the absence of Antibody A binding, there is no detectable FRET fluorescence. When Antibody A binds to GDF-15, the resulting physical proximity between the secondary reagent donor/acceptor pair results in FRET. Competition with an antibody that recognizes the same or similar epitope will result in a dose dependent reduction of the FRET signal. FRET was measured ratiometrically [665 nm (acceptor)/620 nm (donor)] on an Envision plate reader, and IC₅₀ values were determined by curve fitting the data to a four parameter logistic equation using PRISM 6® software (Graphpad).

B1: AB1170036 (antibody, V domains shown)
VH: DVKLVESGEGLVKPGGSLKLSCAASGFTFSSYAMSWVRQTPEKRLEWVAYISSGGDNIYYADTVKGRFTISRDNARNTLYLQMSSLKSEDTAMYYCTRALVENAYFDYWGQGTTLTVSS
VL: DSVLTQSPASLLVSLGQRATISCRASKSVSTSTYSYMHWYQQKPGQPPKLLIKYASYLESGVPARFSGSGSGTDFTLNIHPVEEEDAATYYCQHSREFPWTFGGGTKLEIK
[1]
  binding result: binds
[2]
  binding result: binds
[3]
  binding result: binds
[4]
  IC50: 0.622 nM

B2: AB1170040 (antibody, V domains shown)
VH: B1 VH with N57Y, E102D
VL: B1 VL with S2I, L12A, T33S, S60F
[1]
  binding result: binds
[2]
  binding result: binds
[3]
  binding result: binds
[4]
  IC50: 1.42 nM

B3: AB1170047 (antibody, V domains shown)
VH: QVQLQQSGPELVKPGASVKLSCKASGYTFTSYDINWVKQRPGQGLEWIGWIYPRDGISKYNEKFKGKATLTVDTSSSTAYMELHSLTSEDSAVYFCAGTYDPAYFDYWGQGTTLTVSS
VL: DIVLTQSPATLSVTPGDRVSLSCRASQSISYYLHWYQQKSHESPRLLIKYASQSISGIPSRFSGSGSGTDFTLSINSVETEDFGMYFCQQSNSWPYTFGGGTKLEIK
[1]
  binding result: binds
[2]
  binding result: binds
[3]
  binding result: binds
[4]
  IC50: 1.36 nM

B4: AB1170069 (antibody, V domains shown)
VH: B3 VH with K65E, Y100S
VL: B3 VL
[1]
  binding result: binds
[2]
  binding result: binds
[3]
  binding result: binds
[4]
  IC50: 0.759 nM

B5: AB1170070 (antibody, V domains shown)
VH: EVQLQQSGPELVKPGASVKIPCKASGYTFTDYNMDWVKQSHGKSLEWIGDINPYNGITIYNQKFKGKATLTVDKSSSTAYMELRSLTSEDTAVYYCAREEKLGTSFDYWGQGTTLTVSS
VL: DIQMTQSPASLSASVGETVTITCRASENIYSNLAWYQQKQGKSPQLLVYAATNLADGVPSRFSGSGSGTQFSLKINSLQPEDFGSYYCQHFYGTPWTFGGGTKLEIK
[1]
  binding result: binds
[2]
  binding result: binds
[3]
  binding result: binds
[4]
  IC50: 6.83 nM

B6: AB1170006 (antibody, V domains shown)
VH: B5 VH with Y54N, I57V, Y94F, K101L, L102T, T104N, S105A, F106M, T114S, L115V
VL: B5 VL with A13V, N32H, F71Y, P80S, Y92W
[1]
  binding result: binds
[2]
  binding result: binds
[3]
  binding result: binds
[4]
  IC50: 97.1 nM

B7: AB1170028 (antibody, V domains shown)
VH: DVKLVESGEGLVKPGGSLKLSCAASGFTFSSFAMSWVRQTPEKRLEWVAYITSGGDYIFYADTVKGRFTISRDNARNTLYLQMSSLKSEDTAMYYCTRDDGYLWFAYWGQGTLVTVSA
VL: SIVMTQTPKFLPVSAGDRVTMTCKASQNVGNNVAWYQQKPGQSPKLLIYYASNRYTGVPDRFTGSGSGTDFTFTISSVQVEDLAVYFCQQHYSSPLTFGAGTKLELK
[1]
  binding result: binds
[2]
  binding result: binds
[3]
  binding result: binds
[4]
  IC50: 0.485 nM

B8: AB1170010 (antibody, V domains shown)
VH: QVTLKESGPGILQPSQTLSLTCSFSGFSLSTYGMGVGWIRQPSGKGLEWLANIWWNDDKYYNSALKSRLTISKDTSNNQVFLKISSVDTADTATYYCAQEVYGWFAYWGQGTLVTVSS
VL: DIVMTQSQKFMSTSVGDRVSVTCKASQNVGTNVAWYQQKPGQSPKALIYSASYRYSGVPDRFTGSGSGTDFTLTISNVQSEDLAEYFCQQYNSYPLTFGGGTKLEIK
[1]
  binding result: binds
[2]
  binding result: binds
[3]
  binding result: binds
[4]
  IC50: 0.758 nM

B9: AB1170073 (antibody, V domains shown)
VH: QVTLKESGPGILQPSQTLSLTCSFSGFSLSTFGMGVGWIRQPSGKGLEWLAHIWWDDDKYYNPALKSRLTISKDTSKNQVFLKIANVDTADTATYYCARIAYDGYLDYWGQGTTLTVSS
VL: B8 VL with N32D, A46S, L96Y
[1]
  binding result: binds
[2]
  binding result: binds
[3]
  binding result: binds
[4]
  IC50: 2.11 nM

B10: AB1170072 (antibody, V domains shown)
VH: B8 VH with E100M, V101A, G103S
VL: B8 VL with V29M, G30D, L96F, G100S
[1]
  binding result: binds
[2]
  binding result: binds
[3]
  binding result: binds
[4]
  IC50: 0.693 nM

B11: AB1170148 (antibody, V domains shown)
VH: QVQLQQPGAELVRPGTSVKLSCKASGYTFTSYWMHWVKQRPRQGLEWIGLIDPSDNYTNYNQNFKGKATLTVDTSSSTAYMQLGSLTSEDSAVYYCASYDGYSTPSAMDYWGQGTSVTVSS
VL: QIVLSQSPAILSASPGEKVTMTCRASSSVNYMHWYQQKPGSSPKPWIYATSNLASGVPARFSGSGSGTSYSLIISRVEAEDAAAYYCQQWSSYPPTFGGGTKLEIK
[1]
  binding result: binds
[2]
  binding result: binds
[3]
  binding result: binds
[4]
  IC50: 68.3 nM

B12: AB1170043 (antibody, V domains shown)
VH: QVTLKESGPGILQSSQTLSLTCSFSGFSLITSGLGVSWIRQPSGKGLEWLAHIYWDDDKRYNPSLKSRLTISKDTSRNQVFLKITSVDTADTATYYCARGGYDGYYDYWGQGTTLTVSS
VL: DVVMTQTPLSLPVSLGDQASISCRSSQSIVHSNGNTNLEWYLQKPGQSPKLLIYKVSNRLSGVPDRFSGSGSGTDFTLKISRVEAEDLGVYYCFQGSHVRTFGGGTKLEIK
[1]
  binding result: binds
[2]
  binding result: binds
[3]
  binding result: binds
[4]
  IC50: 1.95 nM

B13: AB1170086 (antibody, V domains shown)
VH: B12 VH with I30S, L34M, K66E, A90T
VL: B12 VL with F76S
[1]
  binding result: binds
[2]
  binding result: binds
[3]
  binding result: binds
[4]
  IC50: 1.11 nM
